Measured values: US20230094463A1, “ANTIBODIES THAT DISRUPT THE INTERACTION OF GAL3 AND INSULIN RECEPTOR OR INTEGRINS AND METHODS OF USE THEREOF” (TrueBinding, Inc., priority 2019, published 2023)

Experiments:
[1] = target: T1, interaction of Gal3 and INSR (Homo sapiens, UniProt P17931); assay: ELISA of blocking of Gal3-INSR association by Gal3-binding antibodies
T1 construct: 6-histidine tag (linker-spaced); purchased Acro Biosystems (Gal3); Sino Biological (INSR) GA3-H5129; 11086-H08H
Experimental: Positively scoring wells were evaluated for the ability to block association of Gal3 and INSR. To identify Gal3-targeted antibodies with the ability to block the interaction of Gal3 and INSR, purified Gal3 and INSR proteins were incubated in the presence of Gal3-immunization hybridoma supernatants described above, or without antibody, and protein interaction was evaluated by ELISA. Human Galectin-3 protein (Acro Biosystems, GA3-H5129) was diluted in PBS (Corning, 21-030-CM) to a concentration of 3 μg/ml and added to the wells of a 96-well ELISA plate (Thermo Fisher, 44-2404-21). After incubating the plate at 4° C. overnight, the plate was washed three times with PBST (PBS with 0.05% Tween 20 [VWR, 0777]). The plate was then blocked for an hour with 2% BSA (EMD Millipore, 126609) in PBST at room temperature with gentle rocking. Thereafter, the 2% BSA in PBST was discarded and antibody or inhibitor (3-fold dilutions beginning at 20 μg/ml, 60 μg/ml, or 180 μM) in 2% BSA in PBST was added to the wells. Afterwards, 6 μg/ml of human Insulin Receptor (Sino Biological, 11086-H08H) in 2% BSA in PBST was added to the antibody or inhibitor in the wells in a 1:1 ratio. The plate was incubated for an hour at room temperature with gentle rocking. Thereafter, the plate was washed three times with PBST, and 0.3 μg/ml of human INSR Biotinylated Antibody (R&D Systems, BAF1544) in 2% BSA in PBST was added to the wells. The plate was incubated for an hour with gentle rocking and then washed three times with PBST. Avidin-HRP (1:2000) was then added to the wells. The plate was incubated at room temperature for an hour with gentle rocking and then washed three times with PBST. TMB substrate (Thermo Scientific, 34029) was then added to each well. The reaction was stopped with 1M HCl (JT Baker, 5620-02) and read using a plate reader (Molecular Devices) at absorbance of 450 nm.

human Gal3 = target: T2, human Gal3 (Homo sapiens, UniProt P17931); assay: Antibody binning assays (competition for binding to Gal3); conditions: binning per Examples 3 and 18
T2 construct: His; purchased AcroBio GA3-H5129
Experimental: To determine whether Gal3-binding antibodies with Gal3-INSR blocking activity bind to the same or overlapping regions of the Gal3 molecule, antibody binning assays were performed to assess the ability of antibodies to simultaneously bind Gal3. Amine-reactive probes were loaded onto a Gator biosensor (Probe Life, Palo Alto, Calif.), equilibrated in dH20 for 60 seconds, dipped into 100 μl EDC 0.2M/NHS 0.05M activation buffer for 30 seconds, then dipped into a solution of […] human Gal3-His in 10 mM NaOAc buffer, pH 5 until binding was saturated, and quenched in 1 M ethanolamine pH 8.5 for 300 seconds. Following Gal3-His loading, tips were dipped in 20 μg/mL saturating antibody, then successively dipped into 5 μg/mL competing antibody.
The epitope binning assay was done in a sandwich format on the high-throughput SPR-based Carterra LSA unit (CarterraBio, Salt Lake City, Utah). First, the purified antibodies were diluted to 10 μg/ml concentration in 10 mM NaOAc (pH 5.0) and then were covalently coupled via amine group to HC200M chip activated by EDC and S-NHS to immobilize antibodies to different positions of a 384-spot array. One hundred thirty-eight binning cycles were run on the array of immobilized antibodies. In each cycle, first, human Gal3 (AcroBio GA3-H5129) was injected over the entire array to bind to different antibodies (primary antibody), followed by one antibody (secondary antibody) selected among the panel of 150 anti-GAL3 antibodies tested. At the end of each cycle, the array was regenerated by 10 mM Glycine (pH 2.0) to remove bound antigen and secondary antibody from the array. The data analysis was done using the Epitope software by CarterraBio.

[2] = test system: Gal3 peptides (SEQ ID NOs: 3-26); assay: Gal3 peptide library binding ELISA (epitope mapping); set-up: species or system human; conditions: Peptide 8 (SEQ ID NO: 10)
Experimental: (§1) To identify the epitopes to which Gal3 antibodies with and without Gal3-INSR blocking activity bound, a library of 24 amino acid peptides representing portions of Gal3, depicted in FIG. 27, was produced and the ability of each peptide to bind Gal3 antibodies was evaluated by ELISA. At least 2 μg/ml of hGal3 peptide in 50 μl of PBS or 0.1 μg/ml of full-length human Gal3 protein (GenScript) and human Galectin-3 protein (Acro Biosystems, GA3-H5129) were diluted in PBS (Corning, 21-030-CM) to concentrations of at least 2 μg/ml or 0.1 μg/ml, respectively, and added to the wells of a 96-well ELISA plate (Thermo Fisher, 44-2404-21). After incubating the plate at 4° C. overnight, the plate was washed three times with PBST (PBS with 0.05% Tween 20 [VWR, 0777]). The plate was then blocked for an hour with 2% BSA (EMD Millipore, 126609) in PBST at room temperature with gentle rocking. Thereafter, the 2% BSA in PBST was discarded and human Galectin-3 hybridoma supernatants or antibodies were diluted in 2% BSA in PBST to concentrations of at least 0.1 μg/ml and added to the wells. The plate was incubated for an hour at room temperature with gentle rocking and then washed three times with PBST. Afterwards, Goat Anti-Mouse IgG-HRP (Jackson ImmunoResearch, 115-036-1461) or Goat Anti-Rat IgG HRP (Abcam, ab205720) diluted in 2% BSA in PBST (1:4000) were added to the wells. The plate was incubated for 30 minutes to 1 hour at room temperature with gentle rocking and then washed three times with PBST. TMB substrate (Thermo Scientific, 34029) was then added to each well. The reaction was stopped with 1M HCl (JT Baker, 5620-02) and read using a plate reader (Molecular Devices) at absorbance of 450 nm.
(§2) Human Gal3 peptides (LifeTein, custom order) and human Gal3 proteins (R&D Systems, 8259-GA; TrueBinding, QCB200349) were diluted in PBS (Corning, 21-030-CM) to concentrations of at least 100 μg/mL (peptides) or 1 μg/mL (proteins), and added to the wells of several 96-well ELISA plates (Thermo Fisher, 44-2404-21). After incubating the plates at 4° C. overnight, the plates were washed three times with PBST (PBS with 0.05% Tween 20 [VWR, 0777]). The plates were then blocked for an hour with 2% BSA (EMD Millipore, 126609) in PBST at room temperature with gentle rocking. Thereafter, the 2% BSA in PBST was discarded and Gal3-binding antibodies (reformatted hIgG4 [S228P]) were diluted in 2% BSA in PBST to concentrations of 5 μg/mL and added to the wells. The plates were incubated for an hour at room temperature with gentle rocking and then washed three times with PBST. Afterwards, Peroxidase AffiniPure F(ab′)2 Fragment Goat Anti-Human IgG (H+L) polyclonal antibody (Jackson ImmunoResearch, 109-036-003), was diluted in 2% BSA in PBST (1:4000) and added to the wells. The plates were incubated for 1 hour at room temperature with gentle rocking and then washed three times with PBST. TMB substrate (Thermo Scientific, 34029) was then added to each well. The reaction was stopped with 1M HCl (JT Baker, 5620-02) and read using a plate reader (Molecular Devices) at absorbance of 450 nm.

[3] = target: T3, Gal3 peptides (SEQ ID NOs: 3-26) (Homo sapiens, UniProt P17931); assay: as above
T3 construct: a library of 24 amino acid peptides representing portions of Gal3; purchased LifeTein custom order
Experimental: as §1, §2

Jurkat T cell adhesion = Jurkat T cell adhesion assay on Gal-3/antibody coated plates; format: cell-based; conditions: recombinant Gal-3 pre-incubated with antibody, 10^5 cells per well
Experimental: To evaluate whether anti-GAL3 antibodies that block GAL3 interaction with integrin negatively influence lymphocyte homing (an important aspect in development of inflammatory diseases), a cell-based assay utilizing lymphocyte Jurkat T cell line was employed. Briefly, recombinant Gal-3 ([…] in PBS) and antibody ([…] in PBS) were incubated for 30 minutes on ice prior to the coating mixture transfer to the 96-well plate and additional overnight incubation. The coating mixture was then removed and the plate was blocked with 0.5% BSA for 45 minutes. Jurkat T cells (10^5 cells per well) were plated in serum free RPMI. Following thirty-minute incubation, the cells were gently washed once with serum free medium and fixed with 4% PFA for 10 minutes. The adhered cells were further stained with SYTOX™ Orange Nucleic Acid staining (ThermoFisher, S11368) and analyzed by Cytation 1 Cell Imaging Multi-Mode Reader (Biotek).

NOD/ShiLtJ mice = conditions: 10 mg/kg twice a week
Description: To assess the therapeutic potential of anti-GAL3 antibody in Type I diabetes, a mouse model of diabetes type I was used. Briefly, seven-weeks-old female NOD/ShiLtJ mice (Jackson lab (001976)) and control group animals NOR/LtJ (Jackson Lab (002050)) were housed in standard disposable cages with filter tops at room temperature with a 6:00-18:00 day-night cycle. Mice were allowed to rest for a week before initiating glucose monitoring. The antibody treatment was initiated when glucose levels reach 250-400 (mg/dL) for two consecutive days. To establish glucose levels, the blood samples were collected from tail vein of the experimental animals following housing in clean cages with water and no food for 4-6 hours. The collected samples were analyzed by HemoCue Glucose 201 Analyzer and cuvettes (Mercedes Scientific 110706). […] At the end stage, the plasma samples were collected from symptomatic animals. C-peptide levels were determined by Alpco Mouse C-peptide ELISA kit (Alpco, 80-CPTMS-E01).

T1 sequence (P17931 2-250 limits assumed): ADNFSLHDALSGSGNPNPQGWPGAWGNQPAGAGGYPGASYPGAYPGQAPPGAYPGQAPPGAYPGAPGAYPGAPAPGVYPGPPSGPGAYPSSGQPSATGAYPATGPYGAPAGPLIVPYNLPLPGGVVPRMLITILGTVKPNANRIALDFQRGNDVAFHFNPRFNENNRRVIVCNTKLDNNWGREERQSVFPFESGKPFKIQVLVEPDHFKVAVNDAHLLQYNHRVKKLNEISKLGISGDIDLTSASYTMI
T2 sequence (P17931 whole entry): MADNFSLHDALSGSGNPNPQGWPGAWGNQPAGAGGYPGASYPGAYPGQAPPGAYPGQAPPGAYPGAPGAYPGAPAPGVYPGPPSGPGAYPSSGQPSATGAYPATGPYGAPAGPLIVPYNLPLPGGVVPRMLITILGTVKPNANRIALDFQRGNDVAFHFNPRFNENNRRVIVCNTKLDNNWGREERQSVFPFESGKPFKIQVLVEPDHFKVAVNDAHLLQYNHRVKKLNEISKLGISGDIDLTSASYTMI

B1: 13G4.2F8: anti-Gal3 monoclonal antibody (antibody, V domains shown)
VH: QVQLQQPGAELVKPGASVKLSCKASGYTFTSYWMHWVKQRPGQGLEWIGMIHPNSGSTDYNEKFKNKATLNVDKSSSTAYIQLSSLTSEDSAVYYCTRWGIYYYARDYWGQGTTLTVSS
VL: DIVMTQSQKFMSTSVGERVSITCKASQNVGTNVAWYQQKAGQSLELLIYGASNRHTGVPDRFTGSGSGTDFTLTITNVQSEDMTNYFCEQYSNFPLTFGAGTKLELK
- Gal3-INSR blocking activity (in words) [1]: poorly block

B2: 24D12.2H9: anti-Gal3 monoclonal antibody (antibody, V domains shown)
VH: QVQLKQSGPGLVQPSQSLSITCTVSGFSLTSYGVHWVRQAPGKGLEWLGVIWSGGSTDYNAAFMSRLSISKDNSKSQVFFKMNSLQADDTAIYYCAKSPDGYDVAWFGYWGQGTLVTVSA
VL: DIVMTQSHKFMSTSVGDRVSITCKASQDVRTAVAWYQQKPGQSPKLLIYWASTRHTGVPDRFTGSGSGTDFTLTLSNVQSEDLADYFCQQYSSYPWTFGGGTKLEIK
- Gal3-INSR blocking activity (in words) [1]: poorly block

B3: 23H9.2E4: anti-Gal3 monoclonal antibody (antibody, V domains shown)
VH: QIQLVQSGPELKKPGETVKISCKASGYTFTTYAMSWVKQAPGKGLKWMGWINTYSGVPTYADDLKGRFAFSLETSASTAYLQINNLKNEDTATYFCARGPYAMDYWGQGTSVTVSS
VL: DIQMTQTTSSLSASLGDRVTISCSASQGINNYLNWYQQKPDGTVKLLIYYASSLHSGVPSRFSGSGSGTDYSLTISNLEPEDIATYYCQQYSQVPYTFGSGTKLEIK
- epitope bin (competitive binding to Gal3) (human Gal3): bin 3
- binding to Gal3 Peptide 8 [2]: bind
- binding to Gal3 Peptide 1 ([3]; Peptide 1 (SEQ ID NO: 3), amino acids 1-20 of Gal3): bind and bound
- binding to Gal3 Peptide 6 ([3]; Peptide 6 (SEQ ID NO: 8), amino acids 51-70 of Gal3): bind and bound
- binding to Gal3 Peptide 7 ([3]; Peptide 7 (SEQ ID NO: 9), amino acids 61-80 of Gal3): bind and bound
- inhibition of Jurkat T cell adhesion (Jurkat T cell adhesion): did not inhibit

B4: mTB001: anti-GAL3 antibody used in mouse models (antibody)
heavy: QIQLVQSGPELKKPGETVKISCKASGYTFTNYGMNWVKQAPGKGLKWMGWINTNTGEPTYVEEFKGRFAFSLETSASTAYLQINNLKNEDTATYFCAPYDNFFAYWGQGTLVTVSAAKTTPPSVYPLAPVCGDTTGSSVTLGCLVKGYFPEPVTLTWNSGSLSSGVHTFPAVLQSDLYTLSSSVTVTSSTWPSQSITCNVAHPASSTKVDKKIEPRGPTIKPCPPCKCPAPNAAGGPSVFIFPPKIKDVLMISLSPIVTCVVVDVSEDDPDVQISWFVNNVEVHTAQTQTHREDYNSTLRVVSALPIQHQDWMSGKEFKCKVNNKDLGAPIERTISKPKGSVRAPQVYVLPPPEEEMTKKQVTLTCMVTDFMPEDIYVEWTNNGKTELNYKNTEPVLDSDGSYFMYSKLRVEKKNWVERNSYSCSVVHEGLHNHHTTKSFSRTPGK
light: DIVITQDELSNPVTSGESVSISCRSSKSLLYKDGKTYLNWFLQRPGQSPQLLIYLMSTHASGVSDRFSGSGSGTDFTLEISRVKAEDVGVYYCQQLVDYPLTFGAGTKLELKRADVAPTVSIFPPSSEQLTSGGASVVCFLNNFYPKDINVKWKIDGSERQNGVLNSWTDQDSKDSTYSMSSTLTLTKDEYERHNSYTCEATHKTSTSPIVKSFNRNEC
- levels of blood glucose (NOD/ShiLtJ mice): stabilizing the levels of blood glucose
- survival (NOD/ShiLtJ mice): prolonged survival
- C-peptide levels (NOD/ShiLtJ mice; plasma ELISA): restoring C-peptide levels

B5: 12G5.D7: anti-Gal3 monoclonal antibody (antibody, V domains shown)
VH: QVQLKQSGAELVRPGASVKLSCKASGYTFTDYYINWVKQRPGQGLEWIARIYPGTGNTDYNEKFKGRATLTAEKSSSTAYMQLSSLTSEDSAVYFCARFAYYYGSGGYFDYWGHGTTLTVSS
VL: DILMTQSPSSMSVSLGDTVSITCHASQGINSNMGWLQQKPGKSFKGLIYHATNLEDGVPSRFSGSGSGADYSLTISSLESEDFADYYCVQYAQFPPTFGSGTKLEIK
- epitope bin (competitive binding to Gal3) (human Gal3): bin 10
- Gal3-INSR blocking activity (in words) [1]: poorly block
